Laboratory results as given in patent US20040132093A1 (AVENTIS PHARMA S A, published 2004).

Columns and labels:
[1] = biological target: T1, OBRs-YFP fusion protein (short form of the leptin receptor fused at its C-terminal end to YFP) (human); experiment: BRET in living cells, fusion proteins expressed in equimolar amounts
T1 construct: also called OB-R-YFP; acceptor fusion protein
Procedure: 48 hours after transfection, HeLa, COS and HEK 293 cells expressing OBR were detached and washed with PBS. 1-2×10⁵ cells were distributed into 96-well optical plates (Packard Instrument Company, Meriden, Conn.) in the presence or absence of ligands, at 25° C. Membranes prepared from cells expressing OBR were used for the measurements of BRET. The substrate, coelenterazine h (Molecular Probes, Eugene, Oreg.), was added at a final concentration of 5 μM and the reading was carried out with a Fusion™ fluoro/luminometer (Packard Instrument Company, Meriden, Conn.), which permits the sequential integration of the luminescence signals detected with two filters (Luc filter: 485+10 nm; YFP filter: 530±12.5 nm). The BRET ratio is defined as the difference in the emission at 530 nm/485 nm of the cotransfected Luc and YFP fusion proteins and the emission at 530 nm/485 nm of the Luc fusion protein alone. The results are expressed in milliBRET units (mBU), 1 mBRET unit corresponding to the value of the BRET ratio multiplied by 1 000. The following ligands were used to determine the specificity of the assay: recombinant human erythropoietin (EPO), insulin (Ins), lipopolysaccharide (LPS, Sigma Aldrich, St. Louis, USA), recombinant human trombopoietin (TPO), GM-CSF, interleukin 3 (IL3), interleukin 6 (IL6), prolactin (PRL), SCF, EGF and TNFα. […]

[2] = biological target: T2, protein from fusion between YFP and the insulin receptor (Boute et al., 2001) (UniProt P06213 28-1382); experiment: BRET in living cells coexpressing the fusion proteins
T2 construct: whole, on cells; Specificity control in BRET; also called insulin receptor-YFP; not shown: YFP

binding result [1]: binds | binding result [2]: no binding
B1: OBRs-Luc fusion protein (short form of the leptin receptor fused at its C-terminal end to Renilla luciferase) (receptor)
chain: ASISARQEQKLISEEDLTRYPITPWRFKLSCMPPNSTYDYFLLPAGLSKNTSNSNGHYETAVEPKFNSSGTHFSNLSKTTFHCCFRSEQDRNCSLCADNIEGTTFVSTVNSLVFQQIDANWNIQCWLKGDLKLFICYVESLFKNLFRNYNYKVHLLYVLPEVLEDSPLVPQKGSFQMVHCNCSVHECCECLVPVPTAKLNDTLLMCLKITSGGVIFRSPLMSVQPINMVKPDPPLGLHMEITDDGNLKISWSSPPLVPFPLQYQVKYSENSTTVIREADKIVSATSLLVDSILPGSSYEVQVRGKRLDGPGIWSDWSTPRVFTTQDVIYFPPKILTSVGSNVSFHCIYKKENKIVPSKEIVWWMNLAEKIPQSQYDVVSDHVSKVTFFNLNETKPRGKFTYDAVYCCNEHECHHRYAELYVIDVNINISCETDGYLTKMTCRWSTSTIQSLAESTLQLRYHRSSLYCSDIPSIHPISEPKDCYLQSDGFYECIFQPIFLLSGYTMWIRINHSLGSLDSPPTCVLPDSVVKPLPPSSVKAEITINIGLLKISWEKPVFPENNLQFQIRYGLSGKEVQWKMYEVYDAKSKSVSLPVPDLCAVYAVQVRCKRLDGLGYWSNWSNPAYTVVMDIKVPMRGPEFWRIINGDTMKKEKNVTLLWKPLMKNDSLCSVQRYVINHHTSCNGTWSEDVGNHTKFTFLWTEQAHTVTVLAINSIGASVANFNLTFSWPMSKVNIVQSLSAYPLNSSCVIVSWILSPSDYKLMYFIIEWKNLNEDGEIKWLRISSSVKKYYIHDHFIPIEKYQFSLYPIFMEGVGKPKIINSFTQDDIEKHQSDAGLYVIVPVIISSSILLLGTLLISHQRMKKLFWEDVPNPKNCSWAQGLNFQKRTDILDPPARATMTSKVYDPEQRKRMITGPQWWARCKQMNVLDSFINYYDSEKHAENAVIFLHGNAASSYLWRHVVPHIEPVARCIIPDLIGMGKSGKSGNGSYRLLDHYKYLTAWFELLNLPKKIIFVGHDWGACLAFHYSYEHQDKIKAIVHAESVVDVIESWDEWPDIEEDIALIKSEEGEKMVLENNFFVETMLPSKIMRKLEPEEFAAYLEPFKEKGEVRRPTLSWPREIPLVKGGKPDVVQIVRNYNAYLRASDDLPKMFIESDPGFFSNAIVEGAKKFPNTEFVKVKGLHFSQEDAPDEMGKYIKSFVERVLKNEQ
notes: Expressed in COS, HeLa or HEK 293 cells; also assayed in membranes and extracts; also called OB-R-Luc; donor fusion protein
